Data reported in publication PMC4253670 (Biochemical and biophysical research communications, 2014).
“Also recorded” adds a separate entry of the source. Where no end group is shown, it is not given here.

Experiments:
MPO [1] = target: T1, MPO (Homo sapiens, UniProt P05164); test: Peptide screening, direct binding ELISA of 87 overlapping Cp peptides; details: combined data of 87 ELISA plates; 24-mers not HPLC-purified; figure 2A
MPO [2] = target: T1, MPO; test: Direct binding ELISA of HPLC-purified peptides; details: 24-mer P18, 21-mers of P18, P48, P76, negative controls P28 and P61, mean ± SEM, n = 4 wells, p<0.05, figure 3B
MPO [3] = target: T1, MPO; test: Surface plasmon resonance, immobilized MPO; details: read-out: binding affinity (Kd); MPO immobilized on CM5 chip via -NH2; Cp 1 to 200 nM; Biacore3000, 30 μl/min; Biaevaluation software
MPO [4] = details: ref [14]; cited from earlier work
Cp = details: oxidation of ferrous ions and removal of peroxides; ref [14]; cited from earlier work

T1 sequence (P05164 279-745 limits assumed): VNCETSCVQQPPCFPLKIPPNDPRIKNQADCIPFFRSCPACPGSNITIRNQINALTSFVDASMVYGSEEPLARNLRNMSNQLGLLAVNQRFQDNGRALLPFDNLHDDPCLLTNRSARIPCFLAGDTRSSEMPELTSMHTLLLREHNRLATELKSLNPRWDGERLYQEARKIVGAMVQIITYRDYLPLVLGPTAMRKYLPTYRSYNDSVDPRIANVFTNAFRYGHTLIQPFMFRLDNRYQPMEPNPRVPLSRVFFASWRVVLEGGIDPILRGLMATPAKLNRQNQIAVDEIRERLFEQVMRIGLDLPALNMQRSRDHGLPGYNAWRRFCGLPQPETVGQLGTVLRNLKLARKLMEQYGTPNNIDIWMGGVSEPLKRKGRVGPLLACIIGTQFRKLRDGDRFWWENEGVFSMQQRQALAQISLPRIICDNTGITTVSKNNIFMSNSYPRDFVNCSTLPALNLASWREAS
T1 sequence (P05164 165-273 limits assumed): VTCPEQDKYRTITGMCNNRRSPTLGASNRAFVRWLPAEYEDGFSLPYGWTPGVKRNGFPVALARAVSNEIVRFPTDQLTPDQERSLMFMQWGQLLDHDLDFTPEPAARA

VVDENFSWYLEDNIKTYCSEPEKV [P18]
peptide-MPO to Cp-MPO absorbance ratio (MPO [1]): two major peaks
binding of MPO to HPLC-purified surface-adsorbed peptide (MPO [2]): bound more MPO than its shorter, 21-mer version; also recorded: bound more MPO than P76

B1: Cp: Purified human Cp (Vital Products), copper-containing ferroxidase (protein)
chain: KEKHYYIGIIETTWDYASDHGEKKLISVDTEHSNIYLQNGPDRIGRLYKKALYLQYTDETFRTTIEKPVWLGFLGPIIKAETGDKVYVHLKNLASRPYTFHSHGITYYKEHEGAIYPDNTTDFQRADDKVYPGEQYTYMLLATEEQSPGEGDGNCVTRIYHSHIDAPKDIASGLIGPLIICKKDSLDKEKEKHIDREFVVMFSVVDENFSWYLEDNIKTYCSEPEKVDKDNEDFQESNRMYSVNGYTFGSLPGLSMCAEDRVKWYLFGMGNEVDVHAAFFHGQALTNKNYRIDTINLFPATLFDAYMVAQNPGEWMLSCQNLNHLKAGLQAFFQVQECNKSSSKDNIRGKHVRHYYIAAEEIIWNYAPSGIDIFTKENLTAPGSDSAVFFEQGTTRIGGSYKKLVYREYTDASFTNRKERGPEEEHLGILGPVIWAEVGDTIRVTFHNKGAYPLSIEPIGVRFNKNNEGTYYSPNYNPQSRSVPPSASHVAPTETFTYEWTVPKEVGPTNADPVCLAKMYYSAVEPTKDIFTGLIGPMKICKKGSLHANGRQKDVDKEFYLFPTVFDENESLLLEDNIRMFTTAPDQVDKEDEDFQESNKMHSMNGFMYGNQPGLTMCKGDSVVWYLFSAGNEADVHGIYFSGNTYLWRGERRDTANLFPQTSLTLHMWPDTEGTFNVECLTTDHYTGGMKQKYTVNQCRRQSEDSTFYLGERTYYIAAVEVEWDYSPQREWEKELHHLQEQNVSNAFLDKGEFYIGSKYKKVVYRQYTDSTFRVPVERKAEEEHLGILGPQLHADVGDKVKIIFKNMATRPYSIHAHGVQTESSTVTPTLPGETLTYVWKIPERSGAGTEDSACIPWAYYSTVDQVKDLYSGLIGPLIVCRRPYLKVFNPRRKLEFALLFLVFDENESWYLDDNIKTYSDHPEKVNKDDEEFIESNKMHAINGRMFGNLQGLTMHVGDEVNWYLMGMGNEIDLHTVHFHGHSFQYKHRGVYSSDVFDIFPGTYQTLEMFPRTPGIWLLHCHVTDHIHAGMETTYTVLQNEDTKSG
Kd (MPO [3]): 30 nM
binding to and inhibition of myeloperoxidase (MPO [4]): bind and inhibit myeloperoxidase (MPO)
effect of MPO binding on antioxidant activities of Cp (Cp): does not inhibit important antioxidant activities of Cp
